Source: patent US20130131319A1 (Chugai, published 2013)

Key:
[1] = target: T1, soluble human FcRn (complex of FcRn and beta2-microglobulin) (human, UniProt P55899 24-297; P61769 21-119); assay: Biacore steady-state, antibody immobilized, pH 6.0, 25C; pH 6.0
T1 construct: Secreted from HEK293H
Method: (§1) The antibodies were tested as a test substance after direct immobilization onto Series S Sensor Chip CM5. Using an amino-coupling kit according to the supplier's instruction manual, the antibodies were immobilized onto Sensor Chip so as to secure an immobilization amount of 500 RU. The running buffer used was 50 mmol/l Na-phosphate/150 mmol/l NaCl containing 0.05% (v/v %) Surfactant P20 (pH 6.0).
(§2) With the prepared sensor chips, assay was carried out using as a running buffer, 50 mmol/l Na-phosphate/150 mmol/l NaCl containing 0.05% Surfactant P20 (pH 6.0) or 50 mmol/l Na-phosphate/150 mmol/l NaCl containing 0.05% Surfactant P20 (pH 7.4). Assays were carried out exclusively at 25 degrees C. The diluted human FcRn solutions and running buffer as a reference solution were injected at a flow rate of 5 microliter/min for ten minutes to allow for human FcRn to interact with the antibody on the chip. Next, the running buffer was injected at a flow rate of 5 microliter/min for one minute to monitor the dissociation of FcRn. […]
(§3) The assay results were analyzed using Biacore T100 Evaluation Software (Ver. 2.0.1). By a steady-state affinity method, the dissociation constant (KD) was calculated from the assay results at six different FcRn concentrations.

[2] = target: T1, soluble human FcRn (complex of FcRn and …); assay: Biacore steady-state, antibody immobilized, pH 7.4, 25C; pH 7.4
Method: as §1, §2, §3

[3] = target: T1, soluble human FcRn (complex of FcRn and …); assay: Biacore pH 7.0
Method: The binding between antibody and human FcRn was kinetically analyzed using Biacore T100 (GE Healthcare). […] An appropriate amount of protein L (ACTIGEN) was immobilized onto Sensor chip CM4 (GE Healthcare) by the amino coupling method, and the chip was allowed to capture an antibody of interest. Then, diluted FcRn solutions and running buffer (as a reference solution) were injected to allow human FcRn to interact with the antibody captured on the sensor chip. The running buffer used comprised 50 mmol/l sodium phosphate, 150 mmol/l NaCl, and 0.05% (w/v) Tween20 (pH 7.0). FcRn was diluted using each buffer. The chip was regenerated using 10 mmol/l glycine-HCl (pH 1.5). Assays were carried out exclusively at 25 degrees C. The association rate constant ka (1/Ms) and dissociation rate constant kd (1/s), both of which are kinetic parameters, were calculated based on the sensorgrams obtained in the assays, and KD (M) of each antibody for human FcRn was determined from these values. Each parameter was calculated using Biacore T100 Evaluation Software (GE Healthcare).

[4] = target: T1, soluble human FcRn (complex of FcRn and …); assay: Biacore steady-state, antibody immobilized, pH 6.0, 25C
Method: as §1, §2, §3

[5] = target: T1, soluble human FcRn (complex of FcRn and …); assay: Biacore steady-state, antibody immobilized, pH 7.4, 25C
Method: as §1, §2, §3

[6] = target: T1, soluble human FcRn (complex of FcRn and …); assay: Biacore pH 7.0 (Example 9 method)
Method: (§4) The binding between antibody and human FcRn was kinetically analyzed using Biacore T100 (GE Healthcare). An appropriate amount of protein L (ACTIGEN) was immobilized onto Sensor chip CM4 (GE Healthcare) by the amine-coupling method, and the chip was allowed to capture an antibody of interest. Then, diluted FcRn solutions and running buffer as a reference solution were injected to allow for human FcRn to interact with the antibody captured on the sensor chip. The running buffer used comprised 50 mmol/l sodium phosphate, 150 mmol/l NaCl, and 0.05% (w/v) Tween20 (pH 7.0). FcRn was diluted using each buffer. The chip was regenerated using 10 mmol/l glycine-HCl (pH 1.5). Assays were carried out at 25 degrees C.
(§5) KD (M) of each antibody was derived from the sensorgram data using Biacore T100 Evaluation Software (GE Healthcare), which simultaneously fits the association and dissociation phases of the sensorgrams and globally fits all curves in the working set. Sensorgrams were fit to 1:1 binding model, the “Langmuir binding” model, supplied by Biacore T100 Evaluation Software. For some of the binding interactions, KD was derived by nonlinear regression analysis of plots of Req, the equilibrium binding response, versus the log of the analyte concentration using an equilibrium-based approach.

[7] = target: T1, soluble human FcRn (complex of FcRn and …); assay: Biacore pH 7.0 (Example 9 method); remark: listed apart in the source
Method: as §4, §5

T1 sequence (P55899 24-297 limits assumed, chain 1 of 2): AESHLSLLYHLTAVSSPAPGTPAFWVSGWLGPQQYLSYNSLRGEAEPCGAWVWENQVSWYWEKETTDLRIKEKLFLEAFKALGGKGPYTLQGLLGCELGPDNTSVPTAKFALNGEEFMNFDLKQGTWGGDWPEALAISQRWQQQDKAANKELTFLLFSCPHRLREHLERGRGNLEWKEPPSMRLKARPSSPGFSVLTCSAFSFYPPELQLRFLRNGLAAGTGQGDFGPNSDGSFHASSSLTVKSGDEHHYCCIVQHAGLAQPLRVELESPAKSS
T1 sequence (P61769 21-119 limits assumed, chain 2 of 2): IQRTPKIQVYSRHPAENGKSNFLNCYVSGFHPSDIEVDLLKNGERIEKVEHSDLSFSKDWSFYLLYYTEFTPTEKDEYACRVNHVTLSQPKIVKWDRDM

B1: Fv4-IgG1-v1 (antibody)
heavy: QVQLQESGPGLVKPSETLSLTCAVSGHSISHDHAWSWVRQPPGEGLEWIGFISYSGITNYNPSLQGRVTISRDNSKNTLYLQMNSLRAEDTAVYYCARSLARTTAMDYWGEGTLVTVSSASTKGPSVFPLAPSSKSTSGGTAALGCLVKDYFPEPVTVSWNSGALTSGVHTFPAVLQSSGLYSLSSVVTVPSSSLGTQTYICNVNHKPSNTKVDKKVEPKSCDKTHTCPPCPAPELLGGPSVFLFPPKPKDTLYITREPEVTCVVVDVSHEDPEVKFNWYVDGVEVHNAKTKPREEQYNSTYRVVSVLTVLHQDWLNGKEYKCKVSNKALPAPIEKTISKAKGQPREPQVYTLPPSRDELTKNQVSLTCLVKGFYPSDIAVEWESNGQPENNYKTTPPVLDSDGSFFLYSKLTVDKSRWQQGNVFSCSVMHEALHNHYTQKSLSLSP
light: DIQMTQSPSSLSASVGDSVTITCQASTDISSHLNWYQQKPGKAPELLIYYGSHLLSGVPSRFSGSGSGTDFTFTISSLEAEDAATYYCGQGNRLPYTFGQGTKVEIERTVAAPSVFIFPPSDEQLKSGTASVVCLLNNFYPREAKVQWKVDNALQSGNSQESVTEQDSKDSTYSLSSTLTLSKADYEKHKVYACEVTHQGLSSPVTKSFNRGEC
notes: copies: 2 + 2
Kd [1]: 0.32 µM | Kd [2]: 36.6 µM

B2: IgG1-F455 (antibody)
heavy: QVQLQESGPGLVKPSETLSLTCAVSGHSISHDHAWSWVRQPPGEGLEWIGFISYSGITNYNPSLQGRVTISRDNSKNTLYLQMNSLRAEDTAVYYCARSLARTTAMDYWGEGTLVTVSSASTKGPSVFPLAPSSKSTSGGTAALGCLVKDYFPEPVTVSWNSGALTSGVHTFPAVLQSSGLYSLSSVVTVPSSSLGTQTYICNVNHKPSNTKVDKKVEPKSCDKTHTCPPCPAPELLGGPSVFLFPPKPKDTLMISRTVEVTCVVVDVSHEDPEVKFNWYVDGVEVHNAKTKPREEQYNSTYRVVSVLQVLHQDWLNGKEYKCKVSNKALPAPIEKTISKAKGQPREPQVYTLPPSRDELTKNQVSLTCLVKGFYPSDIAVEWESNGQPENNYKTTPPVLDSDGSFFLYSKLTVDKSRWQQGNVFSCSVYHEALHYHYTQKSLSLSP
light: not shown
notes: copies: 2 + 2
Kd [3]: 0.025 µM

B3: Fv4-IgG1-v2 (antibody)
heavy: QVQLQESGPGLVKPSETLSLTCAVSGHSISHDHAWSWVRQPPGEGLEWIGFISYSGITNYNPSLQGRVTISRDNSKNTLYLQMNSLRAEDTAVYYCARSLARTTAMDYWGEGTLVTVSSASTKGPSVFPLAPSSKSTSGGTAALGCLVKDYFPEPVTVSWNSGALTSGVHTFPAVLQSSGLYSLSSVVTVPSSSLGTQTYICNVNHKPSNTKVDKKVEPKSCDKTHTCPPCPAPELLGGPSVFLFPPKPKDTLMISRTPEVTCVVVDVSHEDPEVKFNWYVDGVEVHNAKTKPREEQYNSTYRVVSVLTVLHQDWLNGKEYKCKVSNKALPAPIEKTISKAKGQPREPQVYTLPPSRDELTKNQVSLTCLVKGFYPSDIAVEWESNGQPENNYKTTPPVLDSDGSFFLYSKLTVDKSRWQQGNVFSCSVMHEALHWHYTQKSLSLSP
light: DIQMTQSPSSLSASVGDSVTITCQASTDISSHLNWYQQKPGKAPELLIYYGSHLLSGVPSRFSGSGSGTDFTFTISSLEAEDAATYYCGQGNRLPYTFGQGTKVEIERTVAAPSVFIFPPSDEQLKSGTASVVCLLNNFYPREAKVQWKVDNALQSGNSQESVTEQDSKDSTYSLSSTLTLSKADYEKHKVYACEVTHQGLSSPVTKSFNRGEC
notes: copies: 2 + 2
Kd [4]: 0.11 µM | Kd [5]: 11 µM

B4: VH3/L (WT)-M73 (antibody)
heavy: QVQLQESGPGLVKPSETLSLTCAVSGHSISHDHAWSWVRQPPGEGLEWIGFISYSGITNYNPSLQGRVTISRDNSKNTLYLQMNSLRAEDTAVYYCARSLARTTAMDYWGEGTLVTVSSASTKGPSVFPLAPSSKSTSGGTAALGCLVKDYFPEPVTVSWNSGALTSGVHTFPAVLQSSGLYSLSSVVTVPSSNFGTQTYTCNVDHKPSNTKVDKTVERKSCVECPPCPAPPVAGPSVFLFPPKPKDTLMISRTPEVTCVVVDVSQEDPEVQFNWYVDGVEVHNAKTKPREEQFNSTFRVVSVLTVVHQDWLNGKEYKCKVSNKGLPAPIEKTISKTKGQPREPQVYTLPPSQEEMTKNQVSLTCLVKGFYPSDIAVEWESNGQPENNYKTTPPMLDSDGSFFLYSKLTVDKSRWQEGNVFSCSVMHEALHAHYTQKSLSLSP
light: not shown
notes: copies: 2 + 2
Kd [6]: 14 µM | Kd [7]: 14 µM
